Assay results taken from patent US10501549B2, “Methods of inhibiting pathological angiogenesis with doppel-targeting molecules” (SEOUL NATIONAL UNIVERSITY R&DB FOUNDATION, priority 2015, dated 2019).

B1: 4D6: murine anti-doppel mAb of hybridoma clone 4D6; VL SEQ ID NO: 49, VH SEQ ID NO: 55 (antibody, V domains shown)
VH: QVQLHQSGSELARPGASVKLSCKASGYTFTNYWMQWVKQRPGQGLEWIGAIYPGDGNTRYSQKFKGKATLTADKSSSTAYMQLSSLASEDSAVYYCARRDYGSSYWYFDVWGAGTTVTVSS
VL: DVLMTQTPLSLPVSLGDQASISCRSSQSIVHSNGNTYLEWYLQKPGQSPKLLIYKVSNRFSGVPDRFSGSGSGTDFTLKISRVEAEDLGVYYCFQGSHVPLTFGAGTKLELKR
B2: 5C7: murine anti-doppel mAb of hybridoma clone 5C7; VL SEQ ID NO: 53, VH SEQ ID NO: 59 (antibody, V domains shown)
VH: QVQLQQSGTELVRPGSSVKISCKASGYAFSSHWMNWVKQRPGQGLEWIGQIYPRNGDTNYNGKFKGKATLTADKSSSTAYMQLSSLTSEDSAVYFCSRSTTIVTTGAYWGQGTLVTVSA
VL: DIQMTQSPSSLSASLGERVSLTCRASQEISGYLSWLQQKPDGTIKRLIYAASILDSGVPKRFSGSRSGSDYSLTISSLESEDFADYYCLQYASYPFMFGAGTKLELKR

Key:
[1] = system: VEGFR2; experiment: VEGF-induced VEGFR2 phosphorylation in HUVECs in presence of rDPl; format: cell-based, human; settings: in the presence of rDPl
[2] = system: EL4 tumor; experiment: Rescue of EL4 tumor growth in Dpl+/− KO mice by rDPl; format: in vivo, Dpl+/− KO C57BL/6 mice
Procedure: To rescue angiogenesis and growth of tumor, Dpl^+/− KO mice were treated with intravenous injection of 1 mg/kg of rDPl three times after the 4th day of EL4 tumor inoculation. EL4 cells were also inoculated with 1 and 10 μg of rDPl in a mixture with 50 μL of Matrigel, in Dpl^+/− KO mice and grown for 10 days.

[3] = system: HUVEC spheroids; experiment: HUVEC spheroids implanted in Matrigel-fibrin gel in vivo; design: species or system SCID mice; settings: VEGF and rDPl-treated HUVEC spheroids
Source text: HUVEC spheroids in vivo were implanted in Matrigel-fibrin gel in the presence of doppel and VEGF following an established protocol (see Alajati et al., Nat Methods. 5:439-445 (2008) and Laib et al., Nat Protoc. 4:1202-1215 (2009)); Hu.dpl spheroids were used to compare. […] In contrast, the presence of VEGF and rDPl generated a complete and perfused vascular bed in the Matrigel-fibrin gel. […] These findings support that rDPl enhances angiogenesis in tumor.

[4] = system: HUVEC spheroids; experiment: HUVEC spheroid sprouting with VEGF and rDPl; format: cell-based, human; settings: co-treated with VEGF, different concentrations rDPl
Procedure: To test this hypothesis, HUVEC spheroids were treated with VEGF in the presence or absence of rDPl. VEGF promoted HUVEC spheroid sprouting; the sprouting was augmented when co-treated with different concentrations rDPl and in Hu.dpl spheroids (FIG. 27A).

[5] = system: CT26 colon cancer; experiment: CT26 colon cancer model, tumor growth and angiogenesis; format: in vivo, mice; settings: for reduction of tumor growth: intravenous; for tumor volume and weight: intravenous 5 and 10 mg/kg, compared to saline and control IgG
Procedure: Based on the in vitro data, clones 4D6 and 5C7 were selected to study the anti-tumor and anti-angiogenic effect of in a murine-derived CT26 colon cancer model. When the tumors reached an average size of 50 mm^3, the mice were treated with intravenous doses of 5 and 10 mg/kg 4D6 and 5C7 mAb clones. […] When administered at a dose of 10 mg/kg once or twice a week, 4D6 mAb reduced the tumor growth by 71.1±4.2% or 87.9±3.9%, respectively.

[6] = system: TEC spheroids; experiment: TEC spheroid sprouting; format: cell-based, mouse
Procedure: The spheroid-based in vivo angiogenesis assay was performed according to a published procedure. Briefly, 8×10^6 TECs or TEC^−/−dpl were suspended in […] media containing 20% methocel solution and 80% culture medium. Cells were divided into non-adherent plastic square petri dishes, 25 μL for each spheroid. Spheroids formed by TECs or TEC^−/−dpl were harvested and mixed in a matrigel/fibrin mixture that contained mouse VEGF and bFGF. TECs or TEC^−/−dpl spheroids (1000 spheroids per plug) were inoculated subcutaneously in the flank of each female SCID mouse (5-6 weeks, Jungang Animal Lab, Korea) or female Balb/c nude mice (Orinet bio, Seongnam, Korea). The spheroids were allowed to grow for 3 weeks. Cy5.5-labeled LMWH, at a dose 2.5 mg/kg, was injected intravenously, and at 2 hours after injection, its accumulation at the site of TEC implantation was checked using Optimax-MX3 (GE Medical Systems, Milwaukee, Wis.). In other experiments, Cy5.5-labeled LHbisD4, at a dose 10 mg/kg, was administered orally, and its distribution was also checked as described previously. The matrix plug was removed and part of the plugs was analyzed for microvessel density and drug accumulation by immunofluorescence staining.
Custom made murine anti-doppel mAbs were acquired and tested for recognition of mouse doppel present in host-derived blood vessels of tumors, ability to block doppel function in vitro, and ability to arrest tumor growth. The selection strategy involved screening for binding with mouse doppel using ELISA and testing for ability to detect doppel protein in TEC lysates using western blot. Six independent clones (7D9, 1B12, 1C8, 5C7, 4D6, and 6F11) were identified. Of the six clones, 5C7 and 4D6 abrogated mouse VEGF (mVEGF)-induced sprouting of TEC spheroids (FIG. 20A, B).

[7] = system: VEGFR2; experiment: mVEGF-induced VEGFR2 phosphorylation in TECs (immunoblot); format: cell-based, mouse; settings: purified clones
[8] = system: HCT116 human colon cancer; experiment: HCT116 human colon cancer mouse xenograft; format: in vivo, mice
Source text: The antitumor effect of 4D6 mAb was also observed in HCT116 human colon cancer mouse xenografts. 4D6 mAb inhibited tumor growth (FIG. 19C, D), doppel- and CD31-positive tumor vessels (FIG. 19E), and mean tumor blood vessels density commensurately with dose and dosing frequency (FIG. 19F, G).

[9] = Preliminary safety observations in treated tumor-bearing mice; format: in vivo
[10] = molecular target: doppel (Mus musculus, UniProt Q9QUG3); experiment: Epitope mapping; format: binding; settings: doppel peptide mapping
Source text: (The same sequence appears in both mouse and human doppel.) FIG. 32 discloses SEQ ID NOS 63-98, respectively, in order of appearance, in the x-axis of the graph and SEQ ID NO: 11 in the body of the graph.
(The corresponding sequence in human doppel is FPDGIH (SEQ ID NO: 61).) FIG. 33 discloses SEQ ID NOS 63-98, respectively, in order of appearance, in the x-axis of the graph and SEQ ID NOS 99-102, 12 and 103-104, respectively, left to right, in order of appearance, in the body of the graph.

[11] = system: VEGFR2; experiment: VEGFR2 dimerization/clustering in Hu.dpl cells (proximity ligation assay, western blot); format: cell-based, human
Source text: The effect of doppel on VEGFR2 dimerization in the absence of VEGF was investigated. In situ proximity ligation assay (PLA) was used to see VEGFR2 homodimers/clusters in intact cells (FIG. 22G, H). […] It was observed that the dynamics between VEGFR2 monomer-dimer using western blot (FIG. 28A). In HUVECs, the prominent 125 kDa and a relative weaker 250 kDa band appeared as VEGFR2 monomer and dimer, respectively. In Hu.dpl cells, VEGFR2 was detected at 250 kDa band in immunoblots.

[12] = mVEGF-induced, cell supernatants of clones
[13] = purified clones, different concentrations

Row | Molecule | VEGFR2 phosphorylation by VEGF [1] | growth of tumors ([2]; EL4 cells inoculated with 1 and 10 μg of rDPl in Matrigel) | localization in tumor tissues ([2]; intravenously injected rDPl) | hemoglobin content of spheroid plugs [3] | HUVEC spheroid sprouting [4] | reduction of tumor growth ([5]; 10 mg/kg once a week) | reduction of tumor growth ([5]; 10 mg/kg twice a week) | tumor volume and weight [5] | sprouting of TEC spheroids [6, 12] | sprouting of TEC spheroids [6, 13] | VEGFR2 phosphorylation in TECs [7] | doppel- and CD31-positive tumor vessels and mean tumor blood vessels density ([8]; commensurately with dose and dosing frequency) | tumor growth ([8]; intravenous 5 and 10 mg/kg once a week, 10 mg/kg twice a week) | body weight [9] | clinical chemistry or hematological blood profile [9] | organ pathology upon inspection and histological analysis [9] | epitope bound [10] | VEGFR2 dimerization/clustering ([11]; Hu.dpl cells, in situ PLA) | VEGFR2 band in immunoblot ([11]; treated Hu.dpl cells, untreated Hu.dpl 250 kDa (dimer))
1 | rDPl: recombinant doppel (rDPl) protein | robustly and dose dependently increased | dose dependently rescued | concentrated and colocalized with VEGFR2- and CD31-positive vessels | higher than control and VEGF-treated spheroids | augmented |  |  |  |  |  |  |  |  |  |  |  |  |  | 
2 | B1 |  |  |  |  |  | 71.1±4.2% | 87.9±3.9% | markedly regressed | abrogated | dose-dependently prevented | dose-dependently prevented | inhibited | inhibited | no changes | no alteration | no obvious organ pathology | YWQFPD |  | 
3 | B2 |  |  |  |  |  |  |  | markedly regressed | abrogated | dose-dependently prevented | dose-dependently prevented |  |  | no changes | no alteration | no obvious organ pathology | FPDGIY | severely compromised | 125 kDa
